Tests used:
[1] = molecular target: I-Eα chain of the murine MHC (class II) (mouse)
[2] = molecular target: Vβ 8.2 TCR on T hybridoma

| Substance | Uptake of 3H-TdR by Mouse Lymphocytes (counts per minute × 10^-3) [1] | IL-2 (U/ml) produced by T hybridomas + APCs (Vβ 1 TCR on T hybridoma) [U/ml] | IL-2 (U/ml) produced by T hybridomas + APCs [2] [U/ml] | IL-2 (U/ml) produced by T hybridomas + APCs (Vβ 3 TCR on T hybridoma) [U/ml] | IL-2 (U/ml) produced by T hybridomas + APCs (Vβ 11 TCR on T hybridoma) [U/ml] | IL-2 (U/ml) produced by T hybridomas + APCs (Vβ 6 TCR on T hybridoma) [U/ml] |
| --- | --- | --- | --- | --- | --- | --- |
| MBP-MAM fusion protein | 80.7 | – | – | – | – | – |
| Native Mycoplasma arthritidis T-cell mitogen (MAM) (ligand) | 108 | 0 | 232 | 0 | 0 | 640 |
| Staphylococcus enterotoxin A (from UniProt P0A0L2) (ligand) | – | 691 | 0 | 1880 | 1180 | – |
| Staphylococcus enterotoxin B (from UniProt P01552) (ligand) | – | 0 | 608 | 1830 | 0 | 0 |

From US5795974
